In patent US20260116991A1 (HAINAN SIMCERE ZAIMING PHARMACEUTICAL, published 2026):
Positions count from the first letter of the chain named. Blank lines part the entries; values can stand above or below the binder they belong to.

Assays:
[1] = biological target: T1, human GPC3-His protein (human, UniProt P51654 25-559); test: ELISA, coated human GPC3, antibody 10 nM;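 further: plate coated with antigen at 1 µg/mL, antibodies bound 2 h at 37 °C, detected via HRP-conjugated secondary antibody and TMB substrate, absorbance read after acid stop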
T1 construct: Bought protein; also called human GPC3 protein; not shown: His tag

[2] = biological target: T2, human GPC3 on CHO-K1-human GPC3 cells (clone CHOK1-hGPC3.2B5) (human, UniProt P51654 25-554); test: FACS on CHOK1-hGPC3.2B5 cells;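 further: flow cytometry binding of chimeric antibodies to the cells, read out as mean fluorescence intensity, with the half-maximal concentration derived by curve fitting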
T2 construct: whole, on cells; Stably transfected CHO-K1 clone 2B5
Experimental: The desired cells were expanded to a logarithmic growth phase in a T-75 cell culture flask, the medium was removed by pipetting, and the cells were washed twice with a PBS buffer, and digested with trypsin. Then a complete medium was added to stop the digestion, and the cells were blown into a single cell suspension. After counting, the cells were centrifuged, and the cell pellet was resuspended with an FACS buffer (PBS+2% fetal bovine serum) to 2×10⁶ cells/mL. The cell resuspension solution was added to a 96-well FACS reaction plate at 50 μl/well, and a chimeric antibody sample to be tested was added at 50 μl/well for incubation at 4° C. for 1 h. […] After the plate was centrifuged and washed 3 times with a PBS buffer, 100 μl of the resulting solution was assayed and analyzed by FACS (FACS Canto™, purchased from BD Biosciences). Data analysis was performed by software (FlowJo) to obtain the mean fluorescence intensity (MFI) of the cells. Then, analysis was performed by software (GraphPad Prism8), data were fitted, and EC₅₀ values were calculated.

[3] = biological target: T3, GPC3 endogenously expressed on HepG2 cells (UniProt P51654 25-554); test: FACS on HepG2 cells;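 further: flow cytometric binding of chimeric antibodies to cells, read as mean fluorescence intensity, EC50 obtained by curve fitting of the MFI data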
T3 construct: whole, on cells

[4] = biological target: T1, human GPC3-His protein; test: ELISA, coated human GPC3, antibody 0.1 nM;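 further: antigen coated on 96-well plates at 1 µg/mL, antibody bound 2 h at 37 °C, detected with HRP-labeled secondary antibody and TMB substrate, acid-stopped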
Experimental: (§1) The specific method is described as follows: The antigen protein was diluted with PBS to a final concentration of 1 μg/mL, and the diluent was added to a 96-well ELISA plate at 50 μL/well. The plate was sealed with a plastic film and incubated at 4° C. overnight, washed twice with PBS the next day, and a blocking solution [PBS+2% (w/w) BSA] was added for blocking at room temperature for 2 h. […] After incubation at 37° C. for 2 h, the plate was washed 3 times with PBS. A horseradish peroxidase (HRP)-labeled secondary antibody (purchased from Merck, Cat. No. AP113P) was added for incubation at 37° C. for 1 h, and the plate was washed 5 times with PBS. A TMB substrate was added at 50 μL/well for incubation at room temperature for 10 min, then a stop solution (1.0M HCl) was added at 50 μL/well. An ELISA plate reader (Multimode Plate Reader, EnSight, purchased from Perkin Elmer) was used to read OD_{450 nm} values, with results as shown in Table 4 to Table 6, FIG. 1A, FIG. 1B, and FIG. 1C.

[5] = biological target: T1, human GPC3-His protein; test: ELISA, coated human GPC3, antibody 0.01 nM;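 further: Plate-bound antigen coated at 1 µg/mL, antibody incubated 2 h at 37 °C, binding detected by HRP-conjugated secondary antibody with TMB substrate, read as absorbance at 450 nm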
Experimental: as §1

[6] = biological target: T1, human GPC3-His protein; test: ELISA, coated human GPC3, antibody 0.001 nM
[7] = biological target: T1, human GPC3-His protein; test: ELISA, coated human GPC3, antibody 0.0001 nM
[8] = biological target: T1, human GPC3-His protein; test: ELISA, coated human GPC3, antibody 1 nM;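 further: antigen coated at 1 µg/mL on 96-well plates, antibody bound for 2 h at 37 °C, detected with HRP-labeled secondary antibody and TMB, absorbance read at 450 nm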
[9] = biological target: T1, human GPC3-His protein; test: ELISA, coated human GPC3, antibody 100 nM;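 further: antibodies bound to antigen-coated 96-well plates (1 µg/mL), 2 h at 37 °C, detected with HRP-labelled secondary antibody and TMB substrate, absorbance read at 450 nm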

B1: F1.41.17 human-murine chimeric antibody (antibody, human IgG1, kappa, V domains shown)
VH: EVQLVESGGDSVKPGGSLKLSCAASGFTFSSYGMSWVRQTPDKRLEWVATINSGGSYTYYQDSVKGRFTISRDNAKNTLYLQMSSLKSEDTAIYYCVRHHYGSSYDYFDYWGQGTTLTVSS
VL: DIVMTQAAPSVPVMPGESVSISCRSSKSLLHSNGNTHLYWFLQRPGQSPQLLIYRMSNLASGVPDRFSGSGSGTAFTLRISRVEAEDVGVYYCMQHLEYPLTFGAGTKLELKR
- OD450 nm [1]: 1.59 OD450
- EC50 [2]: 0.55 nM
- Max MFI [2]: 9930 MFI
- EC50 [3]: 0.2 nM
- Max MFI [3]: 1990 MFI
- OD450 nm [4]: 0.97 OD450
- OD450 nm [5]: 0.24 OD450
- OD450 nm [6]: 0.11 OD450
- OD450 nm [7]: 0.08 OD450
- OD450 nm [8]: 1.68 OD450
- OD450 nm [9]: 1.51 OD450

B3: F1.42.8 human-murine chimeric antibody (antibody, human IgG1, kappa, V domains shown)
VH: HVQLQQPGAELVKPGASVKLSCKASGYTFTSYWMHWVRQRPGQGLEWIEMIHPNSGSTNYNEKFKSKATLTVDKSSSTAYMQLSSLTSEDSAVYYCARGNYNSSLYAMDYWGQGTSVTVSS
VL: DIQMTQTTSSLSASLGDRVTISCSASQGISNYLNWYQQKPDGTVKLLIYYASNLHSGVPSRFSGSGSGTAYSLTISNLEPEDIATYYCQQYSILPYTFGGGTKLEIKR
- OD450 nm [1]: 2.31 OD450
- EC50 [2]: 0.4 nM
- Max MFI [2]: 9420 MFI
- EC50 [3]: 0.21 nM
- Max MFI [3]: 2090 MFI
- OD450 nm [4]: 1.22 OD450
- OD450 nm [5]: 0.3 OD450
- OD450 nm [6]: 0.13 OD450
- OD450 nm [7]: 0.1 OD450
- OD450 nm [8]: 2.02 OD450
- OD450 nm [9]: 2.56 OD450

B4: F1.2.14 human-murine chimeric antibody (antibody, human IgG1, kappa, V domains shown)
VH: RVQLQQSGAELVKPGASVRMSCKASGYTFTAYSIEWMKQNLGKSLEWIGNFRPYNDDTKYNENFKGRATLTVEKSSATVYLELSRLTSDDSAVYYCARSGPTDYFDYWGQGTTLIVSS
VL: DIQMTQSPASLSASVGETVTITCRASDNIYSYLAWYQQKQGQSPQLLVYNAKTLAEGVPSRFSGSGSVTQFSLKIISLQPEDFGTYYCQHHFGTPRTFGGGTKLEIKR
- OD450 nm [1]: 1.47 OD450
- EC50 [2]: 1.67 nM
- Max MFI [2]: 8280 MFI
- EC50 [3]: 2.13 nM
- Max MFI [3]: 1860 MFI
- OD450 nm [4]: 0.61 OD450
- OD450 nm [5]: 0.17 OD450
- OD450 nm [6]: 0.1 OD450
- OD450 nm [7]: 0.08 OD450
- OD450 nm [8]: 1.24 OD450
- OD450 nm [9]: 1.84 OD450

Second part, the binder after the results:

- OD450 nm [1]: 1.75 OD450
- EC50 [2]: 0.53 nM
- Max MFI [2]: 9640 MFI
- EC50 [3]: 0.33 nM
- Max MFI [3]: 2810 MFI
- OD450 nm [4]: 0.74 OD450
- OD450 nm [5]: 0.19 OD450
- OD450 nm [6]: 0.12 OD450
- OD450 nm [7]: 0.1 OD450
- OD450 nm [8]: 1.64 OD450
- OD450 nm [9]: 1.53 OD450
B2: F1.118.4 human-murine chimeric antibody (antibody, human IgG1, kappa, V domains shown)
VH: QVQLQQSGAELAKPGASVKLSCKASGYSFTSYWIHWVKQRPGQGLEWIGYINPSSGYTKYNQKFKDKATLTADKSSSTAYMQLSSLTYEDSAVYYCARFGSSSFYFDYWGQGTTLTVSS
VL: DIVLTQSPASLAVSLGQRATISCRASQSVSSSSYSYMHWYQQKPGQPPKLLIKYASNLDSGVPARFSGSGSGTDFTLNIHPVEEEDTATYYCQHSWEIPAFGGGTKLEIKR

- OD450 nm [1]: 2.02 OD450
- EC50 [2]: 1.36 nM
- Max MFI [2]: 9360 MFI
- EC50 [3]: 0.71 nM
- Max MFI [3]: 1650 MFI
- OD450 nm [4]: 0.8 OD450
- OD450 nm [5]: 0.21 OD450
- OD450 nm [6]: 0.11 OD450
- OD450 nm [7]: 0.08 OD450
- OD450 nm [8]: 1.5 OD450
- OD450 nm [9]: 2.35 OD450
B5: F1.57.21 human-murine chimeric antibody (antibody, human IgG1, kappa, V domains shown)
VH: QVQLQQSGAELARPGASVKLSCKASGYTFTSYGISWVKQITGQGLEWIGEIYPRSESTYYNEKFKGKATLTADKSSSTAYMELRSLTSEDSAVYFCARDYGNIYSFAYWGQGTLVTVSA
VL: B4 VL with A25T, D27E, Q42K, V68G, I76N, T85S, F92Y, R96L, G100A, I106L

- OD450 nm [1]: 1.19 OD450
- EC50 [2]: 1.1 nM
- Max MFI [2]: 10100 MFI
- EC50 [3]: 0.87 nM
- Max MFI [3]: 2340 MFI
- OD450 nm [4]: 0.4 OD450
- OD450 nm [5]: 0.17 OD450
- OD450 nm [6]: 0.1 OD450
- OD450 nm [7]: 0.08 OD450
- OD450 nm [8]: 0.83 OD450
- OD450 nm [9]: 0.76 OD450
B6: F1.83.6 human-murine chimeric antibody (antibody, human IgG1, kappa, V domains shown)
VH: QVQLQQSGPELVKPGASVKISCKASGYAFSSSWMNWVKQRPGKGLEWIGRIYPGDGDTNYNGRFKGKATLTVDKSSSTAYMQLSSLTSEDSAVYFCARGGVFTMALDHWGQGTTLTVSS
VL: DIQMTQSPSSLSASLGGKVTITCKASQDINKYIAWYQHKPGKGPRLLIHYTSTLQPGIPSRFSGSGSGRDYSFSISNLEPEDIATYYCLQYDNLFTFGGGTKLEIKR
